Results reported in publication PMC3248863, “The acid-tolerant L-arabinose isomerase from the mesophilic Shewanella sp. ANA-3 is highly active at low temperatures” (Microbial Cell Factories, 2011).

Target: the molecule itself
Test: SEC; size exclusion chromatography of the purified recombinant enzyme against protein markers of 669, 440, 232, 140 and 66 kDa; single peak of 230 kDa, compared with the 55 kDa band in reducing SDS-PAGE

B1: Shewanella sp. ANA-3 L-arabinose isomerase (enzyme, UniProt A0KWX7 1-500, looked up)
chain: MKAFKQKQVWFITGSQDLYGPKVLEQVAKNSEQIVHGFNESSAISIEVVYKPTVKSPREIHAVCQAANSDENCVGVILWMHTFSPAKMWIAGLNELSKPFMHLHTQFNAELPWSEINMNYMNTHQSAHGCREFGFIGTRMRKERKVVVGHWQSSDVQAQIDDWCRAAAGWHESQNLRIARFGDNMRQVAVTEGDKVAAQIQFGYEVHAYSLGELNEAIADIAEGDVTAQLDRYASEYQVGNELFGDEYQLDRLRKEAKIELGLTQFLTQGGFGAFTNCFENLTGMTGLPGLATQRLMANGFGYGGEGDWKTAAMVRIMKVMGQGRAGGTSFMEDYTYNFGATDQVLGAHMLEVCPSIAAAKPRLEVHRHTIGVRCDVPRLLFTGKAGPAINVSTIDLGNRFRIILNELDTVTPPQDLPNLPVASALWEPRPNLAVAAAAWIHAGGAHHSAYSQAITTDQIVDFAEMAGAELVIIDADTKIREFKNELRQNSVYYGLARGL
notes: L-arabinose isomerase (EC 5.3.1.4) of Shewanella sp; ANA-3, product of the araA gene amplified from chromosomal DNA; 500 amino-acid residues, calculated mass 55.3 kDa; Six histidines at the N-terminal end from pET-15b; also called L-AI; Shewanella sp; ANA-3 L-AI; source: E. coli BL21 (DE3) (pMR38, pET-15b), purified (ammonium sulphate precipitation, IMAC, size exclusion chromatography)
stoichiometry N: 4
